Experimental data: publication PMC8395977
Each block holds one substance with its values, some of them ahead of it.

How the values were obtained:
[1] = target: iota carbonic anhydrase from Thalassiosira pseudonana (tpι-CA), full-length four-domain recombinant protein (Thalassiosira pseudonana); experiment: cross-linking; 0.01% glutaraldehyde, 20 mM Na2HPO4 pH 8.0, 10 to 15 min at room temperature, then SDS-PAGE and Western blot
[2] = target: iota carbonic anhydrase from Thalassiosira pseudonana (tpι-CA), full-length four-domain recombinant protein (Thalassiosira pseudonana); experiment: native MS; ESI-MS under non-denaturing conditions, 500 mM ammonium acetate pH 8, 8 µM protein, Q-ToF (Synapt G1), source 20 °C
[3] = target: iota carbonic anhydrase from Thalassiosira pseudonana (tpι-CA), full-length four-domain recombinant protein (Thalassiosira pseudonana); experiment: SEC; Superdex Increase S200 10 x 300 at 4 °C, samples loaded at 50 µM to 200 µM; Benzonase treatment where mentioned
[4] = target: iota carbonic anhydrase from Thalassiosira pseudonana (tpι-CA), full-length four-domain recombinant protein (Thalassiosira pseudonana); experiment: SEC-SAXS; SWING beamline (SOLEIL), Agilent Bio SEC-5 500 Å column, 15 °C; molecular mass from SAXS-MoW
[5] = target: tpι-CA domain variant ∆1 (composed of domain 1 only) (Thalassiosira pseudonana); experiment: DOSY-NMR; 30 to 80 µM protein, 27 mM Tris, 45 mM NaCl, 10% D2O, pH 8, 298 K, 600 MHz; experimental Dt and Rh compared with HYDROPRO values of the models
[6] = target: tpι-CA domain variant ∆1-2 (composed of domains 1 and 2) (Thalassiosira pseudonana); experiment: as above

stoichiometry N [1]: 4
stoichiometry N [2]: 4
stoichiometry N [3]: 4
stoichiometry N [4]: 4
Substance: iota carbonic anhydrase from Thalassiosira pseudonana (tpι-CA), full-length four-domain recombinant protein (enzyme)

stoichiometry N [5]: 2
Substance: tpι-CA domain variant ∆1 (composed of domain 1 only) (domain or fragment)

stoichiometry N [6]: 4
Substance: tpι-CA domain variant ∆1-2 (composed of domains 1 and 2) (domain or fragment)
